# In article PMC11229369:
# Where a chain is given by its changes, count along the chain named. Where two headings read alike, the source gives them in different places.
# T1: Cas13h1 (UniProt PDB:8WCE_1 1-1111)
# T1 sequence: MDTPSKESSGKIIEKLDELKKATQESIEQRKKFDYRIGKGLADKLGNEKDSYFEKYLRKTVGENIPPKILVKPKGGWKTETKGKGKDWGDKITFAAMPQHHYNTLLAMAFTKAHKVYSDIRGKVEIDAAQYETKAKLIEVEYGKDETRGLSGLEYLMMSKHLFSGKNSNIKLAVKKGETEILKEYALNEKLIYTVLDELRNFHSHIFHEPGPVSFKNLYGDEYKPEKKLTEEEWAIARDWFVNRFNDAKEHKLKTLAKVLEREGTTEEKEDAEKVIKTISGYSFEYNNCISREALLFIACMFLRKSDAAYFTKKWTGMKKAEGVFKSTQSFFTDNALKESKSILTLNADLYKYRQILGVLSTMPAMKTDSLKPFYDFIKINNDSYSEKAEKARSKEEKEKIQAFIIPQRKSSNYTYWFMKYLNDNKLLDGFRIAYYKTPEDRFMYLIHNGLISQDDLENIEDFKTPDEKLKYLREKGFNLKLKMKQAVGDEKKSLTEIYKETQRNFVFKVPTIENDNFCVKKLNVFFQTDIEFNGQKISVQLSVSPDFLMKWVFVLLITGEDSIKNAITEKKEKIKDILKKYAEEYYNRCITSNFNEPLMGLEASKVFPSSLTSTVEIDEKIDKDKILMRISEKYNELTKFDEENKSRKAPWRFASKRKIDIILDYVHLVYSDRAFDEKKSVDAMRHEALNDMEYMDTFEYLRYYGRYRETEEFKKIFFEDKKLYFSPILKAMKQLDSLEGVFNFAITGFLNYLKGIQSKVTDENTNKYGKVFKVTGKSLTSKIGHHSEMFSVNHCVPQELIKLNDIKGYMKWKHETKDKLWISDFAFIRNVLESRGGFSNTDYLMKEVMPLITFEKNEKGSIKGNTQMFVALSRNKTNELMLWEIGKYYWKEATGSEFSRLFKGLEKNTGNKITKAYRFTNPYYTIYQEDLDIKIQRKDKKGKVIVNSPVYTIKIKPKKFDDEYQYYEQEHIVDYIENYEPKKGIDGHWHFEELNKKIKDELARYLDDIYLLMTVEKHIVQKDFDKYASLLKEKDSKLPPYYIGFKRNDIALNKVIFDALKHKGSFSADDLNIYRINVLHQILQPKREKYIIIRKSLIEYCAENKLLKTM
# T2: Cas13h1 R200A (catalytically dead) (UniProt PDB:8WCE_1 1-1111, R200A)
# T2 sequence: T1 sequence with R200A
# T3: Cas13h1 Middle (UniProt PDB:8WCE_1 340-930)
# T3 sequence: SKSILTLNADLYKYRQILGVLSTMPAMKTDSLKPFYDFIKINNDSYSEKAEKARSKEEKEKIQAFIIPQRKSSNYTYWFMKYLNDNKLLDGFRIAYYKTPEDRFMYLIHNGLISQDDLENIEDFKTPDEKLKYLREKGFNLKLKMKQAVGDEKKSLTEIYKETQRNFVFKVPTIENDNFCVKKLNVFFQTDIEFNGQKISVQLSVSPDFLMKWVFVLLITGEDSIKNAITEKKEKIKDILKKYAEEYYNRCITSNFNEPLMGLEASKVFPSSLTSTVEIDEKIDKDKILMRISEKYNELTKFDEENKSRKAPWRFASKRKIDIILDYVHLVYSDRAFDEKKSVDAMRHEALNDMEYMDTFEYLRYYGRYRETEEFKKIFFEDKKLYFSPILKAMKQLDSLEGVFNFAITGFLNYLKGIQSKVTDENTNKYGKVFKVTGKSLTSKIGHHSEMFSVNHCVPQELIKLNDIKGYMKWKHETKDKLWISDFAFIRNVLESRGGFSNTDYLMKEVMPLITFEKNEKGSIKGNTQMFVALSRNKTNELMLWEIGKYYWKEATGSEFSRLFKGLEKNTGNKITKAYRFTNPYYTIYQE
# B1: crRNA (30-nt guide, 36-nt repeat) (structured_RNA)
# RNA: UGCUUCACGUAGGCCUUGGAGCCGUACAUGGUUGUAACAAGCCUAAGUUUGAAAGGUAAAAACAAC
# B2: crRNA / target RNA3 (5'-U) (structured_RNA)
# RNA 1: B1 RNA
# RNA 2: UCAUGUACGGCUCCAAGGCCUACGUGAAGCA
# B3: crRNA / target RNA1 (5'-G) (structured_RNA)
# RNA 1: B1 RNA
# RNA 2: B2 RNA 2 with U1G
# Assays:
# Cas13h1 = biological target: T1, Cas13h1; experiment: cryo-EM
# [1] = biological target: T2, Cas13h1 R200A (catalytically dead); experiment: cryo-EM
# Cas13h1 Middle = biological target: T3, Cas13h1 Middle; experiment: size exclusion chromatography
# [2] = biological target: T2, Cas13h1 R200A (catalytically dead); experiment: cryo-EM; remark: listed apart in the source
binder,measurement,setting,value
B1,binding result,Cas13h1,binds
B2,binding result,[1],binds
B3,binding result,Cas13h1 Middle,binds
same,binding result,[2],binds
